Measurements from US20240076389A1 (NATIONAL RESEARCH COUNCIL OF CANADA, published 2024).

Legend:
[1] = biological target: T1, human AXL expressed on the cell surface of tumor cell lines (human, UniProt P30530 26-894); assay: flow cytometry on H292 cells, apparent cell binding constant
T1 construct: whole, on cells; also called cell surface-expressed AXL; cell-based AXL
T1 sequence (looked up): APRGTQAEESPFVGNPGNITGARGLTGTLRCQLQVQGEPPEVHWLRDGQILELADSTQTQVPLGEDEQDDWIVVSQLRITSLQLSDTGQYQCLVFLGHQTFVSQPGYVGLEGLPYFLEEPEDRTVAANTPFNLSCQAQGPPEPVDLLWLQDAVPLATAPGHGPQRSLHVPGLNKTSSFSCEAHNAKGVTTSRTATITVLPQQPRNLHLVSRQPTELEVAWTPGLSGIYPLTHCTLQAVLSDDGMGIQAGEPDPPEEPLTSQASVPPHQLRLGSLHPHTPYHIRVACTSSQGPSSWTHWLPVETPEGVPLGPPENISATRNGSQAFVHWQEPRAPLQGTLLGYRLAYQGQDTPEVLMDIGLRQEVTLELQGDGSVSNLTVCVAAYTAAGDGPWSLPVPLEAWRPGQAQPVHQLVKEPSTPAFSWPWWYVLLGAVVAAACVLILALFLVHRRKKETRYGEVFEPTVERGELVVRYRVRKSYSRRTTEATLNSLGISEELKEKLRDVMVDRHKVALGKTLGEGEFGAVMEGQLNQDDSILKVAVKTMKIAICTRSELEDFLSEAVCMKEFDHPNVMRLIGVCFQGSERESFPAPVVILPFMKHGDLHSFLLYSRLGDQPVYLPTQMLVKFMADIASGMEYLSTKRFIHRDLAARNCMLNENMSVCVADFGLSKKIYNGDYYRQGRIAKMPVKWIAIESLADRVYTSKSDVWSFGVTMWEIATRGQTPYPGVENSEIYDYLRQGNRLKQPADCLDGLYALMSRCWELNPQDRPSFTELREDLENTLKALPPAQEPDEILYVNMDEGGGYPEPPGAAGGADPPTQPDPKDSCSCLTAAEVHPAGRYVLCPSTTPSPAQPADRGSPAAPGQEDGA
Procedure: Detection of antibody binding to surface AXL by flow cytometry. Prior to analysis, cells were plated such that they were not more than 80% confluent on the day of analysis. Cells were washed in PBS and harvested by the addition of cell dissociation buffer (Sigma). A cell suspension containing 2.5×10⁵ cells (in 500 μl corresponding cell culture media) was incubated with various concentrations (0.01-10 nM) of anti-AXL antibodies for 2 h at 4° C. (to prevent internalization). Following one wash with cell culture media, primary antibody was incubated with 2 μg DYLIGHT™ 488 conjugated AffiniPure goat anti-mouse IgG Alexa 488 secondary antibody (Jackson ImmunoResearch) in 100 μl of media for 1 h at 4° C. Prior to analysis, cell pellets were re-suspended in 300-500 μl media and filtered through a 50 μm nylon mesh filter to remove cell aggregates. Flow cytometry analyses were performed on 10,000 viable cells gated on forward scattering, side scattering parameters and propidium iodide dye exclusion using a BD LSRII flow Cytometer (Becton-Dickinson Biosciences, CA, USA) and a standard filter set using BD FACSDiva™ acquisition software, according to manufacturer's instructions.
Specific detection of antibody binding was calculated as the mean fluorescent intensity of binding to each primary antibody after background level subtraction of the mean fluorescent intensity of binding in the absence of primary antibody (but containing detection antibody). Binding parameters Bmax, (maximum fluorescence signal at receptor saturation), and KD (apparent cell binding constant) were then determined using a One site—Specific binding with Hill slope model in GraphPad Prism v 6.0.

[2] = biological target: T2, AXL fragment # 2 (AXL amino acids 321-429, FN III-2); assay: yeast surface display of hAXL fragments, whole yeast cell ELISA, signal normalised to anti-MYC
T2 chain: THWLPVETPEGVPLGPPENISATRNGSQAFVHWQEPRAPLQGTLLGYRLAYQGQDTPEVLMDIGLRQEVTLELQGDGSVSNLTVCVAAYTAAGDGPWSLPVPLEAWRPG
Source text: (§1) Epitope mapping. […] The YSD vector (pPNL6) was from The Pacific Northwest National Laboratory, USA.

[3] = biological target: T3, AXL fragment # 8 (AXL amino acids 219-450, FN III-1+FN III-2+); assay: as above
T3 construct: not shown: Yeast display carrier and tags (Aga2p, HA, MYC and any linkers)
T3 chain: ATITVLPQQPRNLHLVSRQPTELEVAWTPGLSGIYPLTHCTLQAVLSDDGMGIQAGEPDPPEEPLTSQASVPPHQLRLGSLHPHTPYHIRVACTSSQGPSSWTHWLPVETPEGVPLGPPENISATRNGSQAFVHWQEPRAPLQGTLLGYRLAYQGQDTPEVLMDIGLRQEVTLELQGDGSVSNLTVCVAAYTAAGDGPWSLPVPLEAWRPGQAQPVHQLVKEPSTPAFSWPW
Source text: as §1

[4] = biological target: T4, AXL fragment # 1 (AXL amino acids 135-226, IgL2); assay: as above
T4 chain: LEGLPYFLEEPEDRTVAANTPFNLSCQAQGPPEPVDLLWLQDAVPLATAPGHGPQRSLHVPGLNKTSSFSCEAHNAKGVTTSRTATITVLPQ
Source text: as §1

B1: F107-8D12 (antibody, V domains shown)
VH: QVQLQQPGAELVKPGASVQLSCKASGYTFISFWINWVKQRPGQGLEWMGNIFPGSSSTNYNEKFKSKATLTVDKSSSTAYMQLSSLTSEDSAVYFCARDYYGGSPDYWGQGTTLTVSS
VL: DIVMSQSPSSLAVSAGERVTMSCKSSQSLLNTRTRKNYLAWYQQKPGQSPKLLIYWASTRESGVPDRFTGSGSGTDFTLTISSVQAEDLAVYYCKQSYNLWTFGGGTKLEIK
notes: also called F107-8D12-2; mAb 8D12
- Kd [1]: 88 pM
- binding result [2]: no binding
- binding result [3]: no binding
- binding result [4]: no binding

B2: F107-7H5 (antibody, V domains shown)
VH: QVQLQQPGAELVKPGASVKLSCKASGYTFTSYWINWVKQRPGQGLEWIGNIYPDSSSTNYNEKFKSKATLTVDKSSTTAYIQFSSLTSEDSAVYYCTRDTYGGSPDYWGQGTTLTVSS
VL: DIVMSQSPSSLAVSAGEKVTMSCKSSQSLLNSRTRKIYLAWYQQKPGQSPKLLIYWASTRQSGVPDRFTGSGSGTDFTLTISSVQAEDLAVYYCKQSYNLWTFGGGTKLEIK
notes: also called F107-7H5-2; mAb 7H5
- Kd [1]: 104 pM
- binding result [2]: no binding
- binding result [3]: no binding
- binding result [4]: no binding

B3: F107-10G1 (antibody, V domains shown)
VH: EVNLVESGGGVVKPGASLKLSCEASGFTFSNYGMSWVRQTSDKRLEWVASISGGGGRTYYLDNVKGRFIISRENAKNTLYLQMSSLKSEDTALFYCARGARASYFAMDYWGQGSSVTVSS
VL: VIVMTQSHKFMSTSVGDRVSITCKASQDVTTAVAWYQQKPGQSPKLLIYWASTRHTGVPDRFTGSGSGTDYSLTISNVQTEDLAFYYCQQHFTTPLTFGAGTKLELK
notes: also called F107-10G1-3
- Kd [1]: 100 pM
- binding result [2]: no binding
- binding result [3]: no binding
- binding result [4]: no binding

B4: F111-3C8 (antibody, V domains shown)
VH: QVQLQQPGAELGKPGTSVKLSCKASGYTFTSYWMHWVKRVPGQGLEWIGNINPNSTSADYNEKFKRKATLTVDKSSSTAYMQLSTLTSEDSAVYYCTRPLMGPYWYFDVWGTGTTVTVSS
VL: QIVLTQSPAIMSASPGEKVTISCSASSSVSYMYWYQQKPGSSPKPWIYRTSNLASGVPARFSGSGSGTSYSLTISSMEAEDAATYYCQQYHNYPPTFGGGTKLEIK
notes: also called F111-3C8-2
- Kd [1]: 1230 pM
- binding result [2]: no binding
- binding result [3]: no binding

B5: F111-5E9 (antibody, V domains shown)
VH: QIQLVQSGPELKKPGETVKISCKASGYTFTKYGMNWVKQAPGKGLKWMGWINTYTGEPTYADDFKGRFAFSLETSASTAYLQINNLTTEDMVTYFCAKGGYYSNPIYPMDYWGQGTSVTVSS
VL: DIQMTQTTSSLSASLGDRVTISCRASQDINNYLNWYQQKPDGTVKLLIYYISRLHSGVPSRFSGSGSGTDYSLTISNLELEDVATYFCQQGNTLPFTFGSGTKLEIK
notes: also called F111-5E9-2; mAb 5E9
- Kd [1]: 177 pM
- binding result [2]: no binding
- binding result [3]: no binding
